Test results published in the supplement of paper PMC9112550, “Optimization of the antimicrobial peptide Bac7 by deep mutational scanning” (BMC Biology, 2022).

System: Escherichia coli TOP10
Assay: shrunken log2 fold change of peptide-encoding DNA abundance (4.5 h post-induction vs induction); higher = less antimicrobial activity (less host growth inhibition)
Conditions: time post-induction: 4.5 h; library: site-saturation at positions 5, 18, 19, 20
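Also: peptides expressed intracellularly from a pBAD plasmid library in pooled LB shake-flask culture, induced with 0.3% L-arabinose, DNA abundance read by NGS, three biological replicates, DESeq2 with apeglm shrinkage.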

| Sequence | shrunken log2 fold change |
| --- | --- |
| RRIRLRPPRLPRPRPRPFTKPRP | -0.00525 |
| RRIRHRPPRLPRPRPRPVSNPRP | -0.222 |
| RRIRCRPPRLPRPRPRPFVTPRP | 0.663 |
| RRIRQRPPRLPRPRPRPEARPRP | -0.00982 |
| RRIRQRPPRLPRPRPRPKWAPRP | -0.0411 |
| RRIRVRPPRLPRPRPRPCWDPRP | -0.154 |
| RRIRMRPPRLPRPRPRPYPKPRP | 0.0427 |
| RRIRDRPPRLPRPRPRPMRDPRP | 0.131 |
| RRIRFRPPRLPRPRPRPVAHPRP | -0.113 |
| RRIRCRPPRLPRPRPRPYEVPRP | -0.0152 |
| RRIRKRPPRLPRPRPRPYYLPRP | -0.278 |
| RRIRYRPPRLPRPRPRPHFNPRP | -1.23 |
| RRIRDRPPRLPRPRPRPCCWPRP | 0.582 |
| RRIRYRPPRLPRPRPRPSEKPRP | -0.116 |
| RRIRARPPRLPRPRPRPCQEPRP | 0.094 |
| RRIRYRPPRLPRPRPRPLTEPRP | -0.00518 |
| RRIRERPPRLPRPRPRPIKCPRP | -0.0487 |
| RRIRQRPPRLPRPRPRPCCIPRP | -0.159 |
| RRIRDRPPRLPRPRPRPKAIPRP | -0.0326 |
| RRIRNRPPRLPRPRPRPTRRPRP | 0.805 |
| RRIRNRPPRLPRPRPRPDFVPRP | -0.045 |
| RRIRERPPRLPRPRPRPLCMPRP | -0.592 |
| RRIRWRPPRLPRPRPRPGEWPRP | 0.162 |
| RRIRGRPPRLPRPRPRPFSAPRP | 0.0503 |
| RRIRMRPPRLPRPRPRPSKFPRP | -0.0303 |

| Sequence | shrunken log2 fold change |
| --- | --- |
| RRIRRRPPRLPRPRPRPRNLPRP | -0.0397 |
| RRIRQRPPRLPRPRPRPNWCPRP | -0.0237 |
| RRIRSRPPRLPRPRPRPEMGPRP | 0.128 |
| RRIRNRPPRLPRPRPRPGWAPRP | 0.135 |
| RRIRERPPRLPRPRPRPCNYPRP | -0.746 |
| RRIRHRPPRLPRPRPRPTTFPRP | 0.0797 |
| RRIRERPPRLPRPRPRPQHPPRP | -0.367 |
| RRIRKRPPRLPRPRPRPYKHPRP | -0.347 |
| RRIRARPPRLPRPRPRPIETPRP | -0.18 |
| RRIRTRPPRLPRPRPRPRAWPRP | 0.132 |
| RRIRVRPPRLPRPRPRPPYPPRP | 0.0226 |
| RRIRYRPPRLPRPRPRPNQYPRP | -1.18 |
| RRIRMRPPRLPRPRPRPTYPPRP | -0.0846 |
| RRIRYRPPRLPRPRPRPHHSPRP | -1.27 |
| RRIRIRPPRLPRPRPRPPFLPRP | -0.0978 |
| RRIRSRPPRLPRPRPRPALTPRP | 0.369 |
| RRIRMRPPRLPRPRPRPDCEPRP | 2.29 |
| RRIRIRPPRLPRPRPRPRTPPRP | 0.089 |
| RRIRERPPRLPRPRPRPTNDPRP | 0.127 |
| RRIRERPPRLPRPRPRPKEDPRP | 0.0193 |
| RRIRNRPPRLPRPRPRPQHTPRP | -0.402 |
| RRIRHRPPRLPRPRPRPVMAPRP | -0.27 |
| RRIRWRPPRLPRPRPRPAAWPRP | 0.121 |
| RRIRQRPPRLPRPRPRPKIVPRP | -0.113 |
| RRIRARPPRLPRPRPRPPDPPRP | 1 |

| Sequence | shrunken log2 fold change |
| --- | --- |
| RRIRQRPPRLPRPRPRPHISPRP | -0.312 |
| RRIRRRPPRLPRPRPRPTFMPRP | 0.284 |
| RRIRQRPPRLPRPRPRPFWKPRP | -0.0968 |
| RRIRTRPPRLPRPRPRPCDYPRP | -0.0715 |
| RRIRRRPPRLPRPRPRPKNDPRP | 0.277 |
| RRIRYRPPRLPRPRPRPISTPRP | -0.0632 |
| RRIRYRPPRLPRPRPRPMHQPRP | -0.0734 |
| RRIRFRPPRLPRPRPRPCPIPRP | -0.488 |
| RRIRVRPPRLPRPRPRPNHHPRP | -0.373 |
| RRIRLRPPRLPRPRPRPEVIPRP | 0.178 |
| RRIRGRPPRLPRPRPRPDRRPRP | -0.12 |
| RRIRRRPPRLPRPRPRPAWAPRP | 0.791 |
| RRIRHRPPRLPRPRPRPGDDPRP | -0.044 |
| RRIRRRPPRLPRPRPRPMGTPRP | 0.241 |
| RRIRARPPRLPRPRPRPWDAPRP | 0.108 |
| RRIRKRPPRLPRPRPRPHETPRP | -0.0327 |
| RRIRFRPPRLPRPRPRPLVSPRP | -0.425 |
| RRIRNRPPRLPRPRPRPEFIPRP | -0.304 |
| RRIRIRPPRLPRPRPRPGYHPRP | -0.298 |
| RRIRRRPPRLPRPRPRPFRNPRP | -0.0392 |
| RRIRMRPPRLPRPRPRPNTWPRP | 0.454 |
| RRIRVRPPRLPRPRPRPDYMPRP | 0.0631 |
| RRIRPRPPRLPRPRPRPVTSPRP | 0.0344 |
| RRIRYRPPRLPRPRPRPGIPPRP | -0.193 |
| RRIRFRPPRLPRPRPRPCDHPRP | -0.0275 |

| Sequence | shrunken log2 fold change |
| --- | --- |
| RRIRSRPPRLPRPRPRPKTGPRP | -0.071 |
| RRIRRRPPRLPRPRPRPNNHPRP | -0.374 |
| RRIRCRPPRLPRPRPRPAWTPRP | -0.154 |
| RRIRWRPPRLPRPRPRPSQHPRP | 0.0667 |
| RRIRSRPPRLPRPRPRPLWDPRP | -0.134 |
| RRIRKRPPRLPRPRPRPGQEPRP | 0.053 |
| RRIRARPPRLPRPRPRPDWTPRP | 0.0425 |
| RRIRDRPPRLPRPRPRPQRRPRP | 0.255 |
| RRIRPRPPRLPRPRPRPPYHPRP | -0.226 |
| RRIRRRPPRLPRPRPRPRQRPRP | 0.636 |
| RRIRARPPRLPRPRPRPGTDPRP | 0.565 |
| RRIRKRPPRLPRPRPRPTDPPRP | 0.0238 |
| RRIRNRPPRLPRPRPRPTILPRP | -0.742 |
| RRIRNRPPRLPRPRPRPQYQPRP | -0.317 |
| RRIRIRPPRLPRPRPRPIIRPRP | -0.453 |
| RRIRYRPPRLPRPRPRPQMPPRP | -0.205 |
| RRIRTRPPRLPRPRPRPGTCPRP | -0.00643 |
| RRIRERPPRLPRPRPRPKYAPRP | 0.0159 |
| RRIRMRPPRLPRPRPRPLCFPRP | 0.562 |
| RRIRLRPPRLPRPRPRPLYRPRP | -0.0861 |
| RRIRARPPRLPRPRPRPYVMPRP | -0.211 |
| RRIRSRPPRLPRPRPRPMADPRP | -0.0211 |
| RRIRGRPPRLPRPRPRPLKCPRP | 0.303 |
| RRIRNRPPRLPRPRPRPMVGPRP | -0.0679 |
| RRIRNRPPRLPRPRPRPLKIPRP | -0.233 |

| Sequence | shrunken log2 fold change |
| --- | --- |
| RRIRDRPPRLPRPRPRPDEAPRP | 0.12 |
| RRIRRRPPRLPRPRPRPPMIPRP | 0.0196 |
| RRIRRRPPRLPRPRPRPERDPRP | 0.423 |
| RRIRNRPPRLPRPRPRPHARPRP | 0.187 |
| RRIRERPPRLPRPRPRPFPWPRP | -0.0723 |
| RRIRTRPPRLPRPRPRPMSLPRP | -0.147 |
| RRIRQRPPRLPRPRPRPGCEPRP | 0.0109 |
| RRIRIRPPRLPRPRPRPQDVPRP | -0.0964 |
| RRIRQRPPRLPRPRPRPDHPPRP | -0.0816 |
| RRIRWRPPRLPRPRPRPDTNPRP | -0.144 |
| RRIRGRPPRLPRPRPRPKVLPRP | 0.177 |
| RRIRKRPPRLPRPRPRPVGTPRP | 2.46 |
| RRIRRRPPRLPRPRPRPVRMPRP | 0.497 |
| RRIRDRPPRLPRPRPRPGTFPRP | 0.00435 |
| RRIRMRPPRLPRPRPRPHFDPRP | -0.0378 |
| RRIRFRPPRLPRPRPRPMIQPRP | -0.0594 |
| RRIRYRPPRLPRPRPRPFTFPRP | -1.08 |
| RRIRCRPPRLPRPRPRPGHSPRP | -0.347 |
| RRIRRRPPRLPRPRPRPNVTPRP | 0.0871 |
| RRIRWRPPRLPRPRPRPVEGPRP | -0.0555 |
| RRIRIRPPRLPRPRPRPIIYPRP | -0.396 |
| RRIRHRPPRLPRPRPRPYMHPRP | -0.448 |
| RRIRVRPPRLPRPRPRPTYRPRP | -0.594 |
| RRIRHRPPRLPRPRPRPQNEPRP | -0.133 |
| RRIRPRPPRLPRPRPRPFYLPRP | -0.685 |
